Test results published in patent US9809653B2, “Anti-LAMP1 antibodies and antibody drug conjugates, and uses thereof” (SANOFI, priority 2012, dated 2017).
“Also recorded” adds a separate entry of the source. Like-named read-outs stand apart in the source and are kept apart here. Values belong to the molecule of their own block, whether it stands above or below them.

What was measured:
[1] = test system: Hybrid LAMP1 / glycan-deleted LAMP1 transmembrane proteins; assay: Binding onto membrane-anchored hybrid or mutated LAMP1 proteins (293-F cells) by flow cytometry; design: species or system human/mouse; details: pXL6012 LAMP1_mseq1_ΔGYQTI; Table 18
Sequence of Hybrid LAMP1 / glycan-deleted LAMP1 transmembrane proteins (as listed by the source, stated change not applied): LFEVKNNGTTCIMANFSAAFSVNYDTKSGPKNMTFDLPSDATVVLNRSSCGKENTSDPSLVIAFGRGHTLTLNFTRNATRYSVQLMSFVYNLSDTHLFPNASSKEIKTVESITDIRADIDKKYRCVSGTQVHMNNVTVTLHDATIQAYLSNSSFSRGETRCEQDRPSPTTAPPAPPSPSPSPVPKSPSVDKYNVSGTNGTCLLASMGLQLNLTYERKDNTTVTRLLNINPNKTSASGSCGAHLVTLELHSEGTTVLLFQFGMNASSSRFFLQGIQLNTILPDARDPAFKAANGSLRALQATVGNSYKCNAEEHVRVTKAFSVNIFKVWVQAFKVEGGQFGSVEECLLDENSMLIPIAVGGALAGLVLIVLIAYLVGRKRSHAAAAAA
Procedure: Different LAMP1 proteins were expressed at the cell membrane of HEK293 cells after transient expression from mammalian plasmids encoding the entire coding sequence of LAMP1 deleted of the intracellular lysosome-targeting motif GYQTI and substituted by a 5-Ala repeat sequence.
Two days post transfection cells were processed, analyzed by flow cytometry (Guava® easyCyte™ 8HT) as mentioned in example 4.7, and the mean fluorescence was recorded. This fluorescence represents a semi-quantitative assessment of binding.

[2] = test system: hybrid between murine and human LAMP1 domains; assay: Epitope ELISA on human/mouse hybrid LAMP1 extracellular domains; assay type: binding
From the text: The high level of glycosylation of the antigen required a specific approach to determine the binding site of the anti-LAMP1 mAbs on LAMP1. […] This absence of binding was used to design several chimeric LAMP1 proteins in which one or several of the LAMP1 domains (Loop1-Loop4) in the human construct were replaced by the murine counterpart. The absence of binding once the binding site of the antibody was replaced by the murine counterpart allowed for identification of the antibody binding side.

[3] = test system: Colon Colo205 tumoral cells expressing LAMP1; assay: Internalization score by ImageStream multispectral imaging flow cytometer; assay type: cell-based, human; details: Colo205, 10 μg/ml AlexaFluor488-labeled antibody
From the text: The internalization score (IS) is defined as a ratio of the fluorescence intensity inside the cell to the intensity of the entire cell. […] The higher the score, the greater the fluorescence intensity is inside the cell. As described by Amnis (see the world wide web at amnis.com), the inside of the cell is defined by an erosion of a mask that fits the membrane of the cell. The score is invariant to cell size and can accommodate concentrated bright regions and small dim spots. The ratio is mapped to a logarithmic scale to increase the dynamic range to values between {−inf, inf}. The thickness of the membrane (in pixels) determines which pixels are used to define the boundary and the membrane portions of the cell. The user supplies an ‘internal’ mask based on the brightfield image that covers the inside of the cell, the thickness of the membrane in pixels and the fluorescent channel of interest. The cell is divided into 2 regions: External (B) and internal (I). The user supplies the internal region as the mask. The external region is determined by: 1. Dilating the internal mask by the membrane thickness. 2. Combining 1 with the object mask of the channel of interest. 3. External region equals mask 2 and not the internal mask. Next, the mean intensity of the upper quartile of the pixels in each region is determined. The Internalization Score (IS) is then computed as follows:
Cells were washed by centrifugation with PBS 1% BSA at 400 g for 5 minutes. Cells were fixed and permeabilized using 100 μL of Perm/Fix buffer on ice for 20 minutes. Cells were washed by centrifugation with 1 mL of Perm/Wash Cell buffer at 400 g for 5 minutes.
To test whether internalized antibodies accumulate in lysosomes, simultaneous uptake of mAbs and AlexaFluor647-labeled CD107a (a lysosomal marker) were carried out. […] After incubation, 1 mL Perm/Wash Cell buffer was added to wash, before centrifuging (400 g, 5 min). The supernatant was flicked from the plate before the cells were fixed with 200 μL 1% formaldehyde on ice for 20 minutes. The fluorescence of cells was analyzed with the ImageStream multispectral imaging flow cytometer (Amnis corp.) using the Internalization feature. Five thousand events were acquired for each experimental condition and the corresponding images were analyzed using the IDEAS image-analysis software.

recombinant human LAMP2 = molecular target: T1, recombinant human LAMP2 (Homo sapiens, UniProt P13473); assay: Specificity ELISA on recombinant human LAMP2; assay type: binding
T1 construct: purchased R&D Systems 6228-LM
T1 sequence (P13473 with tags, fused parts or gaps): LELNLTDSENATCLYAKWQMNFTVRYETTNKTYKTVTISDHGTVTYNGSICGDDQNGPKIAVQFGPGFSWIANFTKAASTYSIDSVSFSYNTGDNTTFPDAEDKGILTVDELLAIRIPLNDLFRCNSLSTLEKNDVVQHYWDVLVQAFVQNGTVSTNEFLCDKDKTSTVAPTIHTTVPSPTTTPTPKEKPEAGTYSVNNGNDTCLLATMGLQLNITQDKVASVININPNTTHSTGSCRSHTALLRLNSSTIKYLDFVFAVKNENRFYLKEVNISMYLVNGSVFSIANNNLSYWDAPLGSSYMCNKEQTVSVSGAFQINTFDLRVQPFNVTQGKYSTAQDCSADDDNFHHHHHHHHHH
Procedure: LAMP2 is the closest member of the LAMP family with 35% sequence identity to LAMP1. […] Anti-LAMP1 antibodies were added to the plates and detected by using rabbit anti-mouse IgG conjugated with horseradish peroxidase (Sigma; #A9044). Antibody binding was visualized by adding TMB-H2O2 buffer and read at a wavelength of 450 nm.
LAMP2 is the closest member of the LAMP family with 35% sequence identity to LAMP1. Specificity of MAb4 was evaluated by ELISA as described in example 4.6 with either LAMP1 or LAMP2 soluble proteins, as shown in FIG. 41.

[4] = molecular target: T2, recombinant human LAMP1 coated on plate (Homo sapiens, UniProt P11279); assay: Binding competition between anti-LAMP1 mAbs by ELISA
T2 construct: made in house; host or cells: HEK293 (293-F), transient expression, IMAC-purified
T2 sequence (P11279 with tags, fused parts or gaps): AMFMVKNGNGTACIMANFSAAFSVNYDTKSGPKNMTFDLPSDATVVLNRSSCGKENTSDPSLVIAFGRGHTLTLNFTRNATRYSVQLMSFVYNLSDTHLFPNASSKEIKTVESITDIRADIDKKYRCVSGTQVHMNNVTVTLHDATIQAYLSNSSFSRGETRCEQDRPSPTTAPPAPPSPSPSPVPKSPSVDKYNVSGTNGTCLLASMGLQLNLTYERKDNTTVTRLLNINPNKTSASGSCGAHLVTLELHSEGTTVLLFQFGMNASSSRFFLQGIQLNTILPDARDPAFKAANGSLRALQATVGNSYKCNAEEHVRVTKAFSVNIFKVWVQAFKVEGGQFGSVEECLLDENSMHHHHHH
From the text: MAb format was chosen so that the two mAbs had different Fc domains (either human or murine). […] The results were reported as a percentage of the value obtained from the mAb alone at the same concentration.
MAb format was chosen so that the two mAbs had different Fc domains (either human or murine). Individual measurements of mAb binding could be performed specifically by their unique specific binding to Fc (with Peroxidase-AffiniPure Goat Anti-Human IgG Ab, Fcγ Fragment Specific (Jackson 109-035-098) or with Peroxidase-AffiniPure Goat Anti-Mouse IgG Ab, Fcγ Fragment Specific (Jackson 115-035-164)). Results were reported as a percentage of the value obtained from the mAb alone at the same concentration, see Table 8.

[5] = read-out: EC50 (nM) Loop1-2: hLAMP1 Loop3-4: mLAMP1
[6] = read-out: EC50 (nM) Loop1-3: hLAMP1 Loop4: mLAMP1
[7] = mAb alone 0.06 mg/L, Secondary Ab Anti-Human IgG_HRP
[8] = mAb alone 0.06 mg/L, Secondary Ab Anti-Mouse IgG_HRP
[9] = mAb alone 15 mg/L, Secondary Ab Anti-Human IgG_HRP
[10] = mAb alone 15 mg/L, Secondary Ab Anti-Mouse IgG_HRP

EC50 (nM) Loop1-2: mLAMP1 Loop3-4: hLAMP1 [2]: No binding
EC50 [2, 5]: 0.18 nM
EC50 [2, 6]: 0.16 nM
EC50 ([2]; read-out: EC50 (nM) Loop1: mLAMP1 Loop2-4: hLAMP1): 0.15 nM
binding to LAMP2 (recombinant human LAMP2): No binding
competition with H4A3 for binding to LAMP1 ([4]; ELISA): does not compete
Percentage of signal compared to mAb control alone [4, 7]: 0%
Percentage of signal compared to mAb control alone [4, 8]: 100%
Percentage of signal compared to mAb control alone [4, 9]: 0%
Percentage of signal compared to mAb control alone [4, 10]: 100%
B1: MAb1: murine monoclonal anti-LAMP1 antibody, VH SEQ ID NO: 1, VL SEQ ID NO: 5 (antibody, V domains shown)
VH: QVQLQQSGAELVKPGASVKMSCKASGYIFTNYNIHWVKKSPGQGLEWIGAIYPGNGDAPYSQKFKDKATLTADKSSSTTYMQLSRLTSEDSAVYYCVRANWDVAFAYWGQGTLVSVSA
VL: DIQMTQSPPSLSASLGGKVTITCKASQDIDRYMAWYQDKPGKGPRLLIHDTSTLQPGIPSRFSGSGSGRDYSFSISNLEPEDIATYYCLQYDNLWTFGGGTKLEIK
modifications: Antibody Fragment; antibody fragment
Mean fluorescence [1]: 1027
Internalization score (IS) 4° C., 4 hr [3]: 0.22
Internalization score (IS) 37° C., 4 hr [3]: 2.22

EC50 (nM) Loop1-2: mLAMP1 Loop3-4: hLAMP1 [2]: No binding
EC50 (nM) Loop1: mLAMP1 Loop2-4: hLAMP1 [2]: No binding
EC50 [2, 5]: 0.25 nM
EC50 [2, 6]: 0.25 nM
binding to LAMP2 (recombinant human LAMP2): No binding
competition between MAb2 and MAb3 for binding to LAMP1 ([4]; ELISA): partially compete
competition with H4A3 for binding to LAMP1 ([4]; ELISA): partially competes
Percentage of signal compared to mAb control alone [4, 7]: 0%
Percentage of signal compared to mAb control alone [4, 8]: 100%
Percentage of signal compared to mAb control alone [4, 9]: 0%
Percentage of signal compared to mAb control alone [4, 10]: 100%
B2: MAb2: murine monoclonal anti-LAMP1 antibody, VH SEQ ID NO: 8, VL SEQ ID NO: 12 (antibody, V domains shown)
VH: QVQLQQSAAELARPGASVKMSCKASGYTFTSYTMHWVKQRPGQGLEWIGYFNPSSGYPEYNQKFKDKTTLTADKSSNTAFIQLNSLTSEDSAVYYCSRGYYYGSRGYALDFWGQGASVTVSS
VL: NIVLTQSPVSLAVSLGQRATISCRASESVDINGNTFMHWYQQKPGQSPKLVIYAASNIESGVPARFSGSGSSTDFTFTIDPVEADDVATYYCQQNIEDPWTFGGGTKVEIK
modifications: antibod fragment; antibody fragment
Binding call [1]: Low binding
Mean fluorescence [1]: 105
Internalization score (IS) 4° C., 4 hr [3]: 0.19
Internalization score (IS) 37° C., 4 hr [3]: 2.24
competition with MAb1 for binding to LAMP1 ([4]; ELISA): No competition was observed; also recorded: does not compete
